Columns and labels:
[1] = biological target: T1, human FAP on cells (human, UniProt Q12884 1-760); experiment: cell-based or functional assay
T1 sequence: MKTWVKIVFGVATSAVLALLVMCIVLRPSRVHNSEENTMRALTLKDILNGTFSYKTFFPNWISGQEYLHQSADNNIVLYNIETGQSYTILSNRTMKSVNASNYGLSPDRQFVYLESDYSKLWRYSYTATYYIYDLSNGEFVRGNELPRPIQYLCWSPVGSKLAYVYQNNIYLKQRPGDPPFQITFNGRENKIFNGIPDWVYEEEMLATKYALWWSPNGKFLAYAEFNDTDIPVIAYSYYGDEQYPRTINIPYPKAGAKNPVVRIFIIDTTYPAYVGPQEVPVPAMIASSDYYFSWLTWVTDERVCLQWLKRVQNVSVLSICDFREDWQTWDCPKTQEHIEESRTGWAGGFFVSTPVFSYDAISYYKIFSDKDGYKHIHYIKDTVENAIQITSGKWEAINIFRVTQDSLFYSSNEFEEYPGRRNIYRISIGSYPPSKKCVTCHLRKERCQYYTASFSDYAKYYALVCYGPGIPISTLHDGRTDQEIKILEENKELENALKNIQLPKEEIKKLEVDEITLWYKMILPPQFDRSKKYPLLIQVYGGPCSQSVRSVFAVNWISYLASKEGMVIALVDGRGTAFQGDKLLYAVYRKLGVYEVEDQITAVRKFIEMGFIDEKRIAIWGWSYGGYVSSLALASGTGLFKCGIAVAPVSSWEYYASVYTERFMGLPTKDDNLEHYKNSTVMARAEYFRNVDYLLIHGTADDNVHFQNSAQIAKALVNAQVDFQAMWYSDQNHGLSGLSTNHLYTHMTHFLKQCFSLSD

[2] = biological target: T2, soluble FAP (human, UniProt Q12884 26-760, limits assumed); experiment: cell-based or functional assay
T2 sequence: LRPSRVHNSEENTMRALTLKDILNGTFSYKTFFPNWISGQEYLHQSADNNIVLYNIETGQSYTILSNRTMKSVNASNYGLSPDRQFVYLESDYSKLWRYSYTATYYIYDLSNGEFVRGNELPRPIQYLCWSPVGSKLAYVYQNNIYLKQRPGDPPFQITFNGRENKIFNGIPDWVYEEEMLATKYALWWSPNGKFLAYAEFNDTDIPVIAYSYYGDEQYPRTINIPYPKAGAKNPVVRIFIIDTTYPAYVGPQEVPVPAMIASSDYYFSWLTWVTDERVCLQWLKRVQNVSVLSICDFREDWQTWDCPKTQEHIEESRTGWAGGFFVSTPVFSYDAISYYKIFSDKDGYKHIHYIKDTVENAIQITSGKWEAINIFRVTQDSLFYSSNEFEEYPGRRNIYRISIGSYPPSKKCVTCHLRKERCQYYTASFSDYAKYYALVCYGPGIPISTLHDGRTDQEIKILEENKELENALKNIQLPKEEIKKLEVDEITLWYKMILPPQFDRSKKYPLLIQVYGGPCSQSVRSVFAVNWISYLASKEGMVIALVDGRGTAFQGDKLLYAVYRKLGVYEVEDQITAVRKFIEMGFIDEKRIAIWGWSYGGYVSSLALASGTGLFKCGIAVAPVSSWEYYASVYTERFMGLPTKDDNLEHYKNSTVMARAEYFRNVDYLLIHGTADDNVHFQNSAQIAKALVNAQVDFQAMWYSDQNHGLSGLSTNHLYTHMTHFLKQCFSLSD

IL12p40 release, human DC + HFF1 co-culture, EC50, soluble FAP 0 ng/mL [1]: 0.13 nM
IL12p40 release, human DC + HFF1 co-culture, EC50, soluble FAP 120 ng/mL [2]: 0.46 nM
IL12p40 release, human DC + HFF1 co-culture, EC50, soluble FAP 480 ng/mL [2]: 0.8 nM
B1: CD40.9H3×FAP.LP62 bispecific antibody (bispecific antibody, human IgG1, kappa, L234A L235A)
heavy 1: EVQLVESGGGLVQPGGSLRLSCAASGFTFIGYSMNWVRQAPGKGLEWVSYISSYESTIYYADSVKGRFTISRDNAKNSLYLQMNSLRAEDTAVYYCARSRITLVRGVPRYFDLWGRGTLVTVSSASTKGPSVFPLAPSSKSTSGGTAALGCLVKDYFPEPVTVSWNSGALTSGVHTFPAVLQSSGLYSLSSVVTVPSSSLGTQTYICNVNHKPSNTKVDKKVEPKSCDKTHTCPPCPAPEAAGGPSVFLFPPKPKDTLMISRTPEVTCVVVSVSHEDPEVKFNWYVDGVEVHNAKTKPREEQYNSTYRVVSVLTVLHQDWLNGKEYKCKVSNKALPAPIEKTISKAKGQPREPQVYVLPPSREEMTKNQVSLLCLVKGFYPSDIAVEWESNGQPENNYLTWPPVLDSDGSFFLYSKLTVDKSRWQQGNVFSCSVMHEALHNHYTQKSLSLSPG
heavy 2: EVQLVESGGGLVQPGGSLRLSCAASGFTFIGYSMNWVRQAPGKGLEWVSYISSYESTIYYADSVKGRFTISRDNAKNSLYLQMNSLRAEDTAVYYCARSRITLVRGVPRYFDLWGRGTLVTVSSASTKGPSVFPLAPSSKSTSGGTAALGCLVKDYFPEPVTVSWNSGALTSGVHTFPAVLQSSGLYSLSSVVTVPSSSLGTQTYICNVNHKPSNTKVDKKVEPKSCDKTHTCPPCPAPEAAGGPSVFLFPPKPKDTLMISRTPEVTCVVVSVSHEDPEVKFNWYVDGVEVHNAKTKPREEQYNSTYRVVSVLTVLHQDWLNGKEYKCKVSNKALPAPIEKTISKAKGQPREPQVYVYPPSREEMTKNQVSLTCLVKGFYPSDIAVEWESNGQPENNYKTTPPVLDSDGSFALVSKLTVDKSRWQQGNVFSCSVMHEALHNHYTQKSLSLSPGGGSGGGGSGGGGSGGGGSEVQLLESGGGLVQPGGSLRLSCAASGFTFSSRGMSWVRQAPGKCLEWVSFISSSGTYVYYADSVKGRFTISRDNSKNTLYLQMNSLRAEDTAVYYCARDLPRTGVYFGMDVWGQGTTVTVSSGGGGSGGGGSGGGGSGGGGSDIQMTQSPSSLSASVGDRVTITCRASQSIFNYLNWYQQKPGKAPKLLIYGASTLQSGVPSRFSGSGSGTDFTLTISSLQPEDFATYYCQESYSTPYTFGCGTKVEIK
light: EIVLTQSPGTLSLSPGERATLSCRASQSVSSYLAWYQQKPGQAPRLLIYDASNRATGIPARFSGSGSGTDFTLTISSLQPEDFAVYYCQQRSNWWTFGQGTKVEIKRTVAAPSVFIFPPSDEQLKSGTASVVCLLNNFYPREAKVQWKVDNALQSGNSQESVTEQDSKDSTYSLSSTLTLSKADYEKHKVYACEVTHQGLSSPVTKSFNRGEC
notes: 2+1 format: two anti-CD40 9H3 Fabs on an IgG1 Fc with L234A, L235A, D265S and heterodimerization mutations; Ratio 1:1:2

Source: US20250376536A1 (Bristol-Myers Squibb, published 2025)
